Test results published in patent US20120039802A1 (published 2012).
Ends that are not written are not given here.

Legend:
[1] = molecular target: T1, human cMet expressed on 3T3 cells (human, UniProt P08581 25-1390); experiment: whole cell phage ELISA, 3T3 human cMet vs 3T3
T1 construct: whole, on cells; cells fixed with glutaraldehyde; also called cell surface-expressed human cMet; 3T3 cells that over-express human cMet
Description: Whole cell ELISAs were performed using 3T3 cells that over-express human cMet. […] Briefly, 96-well plates were seeded with 10⁵ cells per well. The plates were centrifuged for 5 minutes at 1600 rpm to pellet the cells. The resulting cell layer was fixed with 0.1% (v/v) glutaraldehyde for 12 minutes at 37 C. […] Peptide-displaying phage also were blocked in the above solution for 1 hour at 37 C. 100 μL of blocked phage was then added to each well and the plates were incubated for 1 hour at room temperature. The plates were washed with PBST. cMet-binding peptide-displaying phage were detected using an HRP-conjugated anti-M13 antibody.

[2] = molecular target: T2, cMet-Fc fusion protein (extracellular domain of the cMet receptor expressed as an Fc-fusion protein) (human, UniProt P08581 25-932); experiment: phage ELISA on cMet-Fc, competitor HGF 100 ng/mL
T2 construct: extracellular domain; also called soluble cMet-Fc-fusion protein; soluble cMet receptor; not shown: Fc part
T2 sequence (P08581 25-932): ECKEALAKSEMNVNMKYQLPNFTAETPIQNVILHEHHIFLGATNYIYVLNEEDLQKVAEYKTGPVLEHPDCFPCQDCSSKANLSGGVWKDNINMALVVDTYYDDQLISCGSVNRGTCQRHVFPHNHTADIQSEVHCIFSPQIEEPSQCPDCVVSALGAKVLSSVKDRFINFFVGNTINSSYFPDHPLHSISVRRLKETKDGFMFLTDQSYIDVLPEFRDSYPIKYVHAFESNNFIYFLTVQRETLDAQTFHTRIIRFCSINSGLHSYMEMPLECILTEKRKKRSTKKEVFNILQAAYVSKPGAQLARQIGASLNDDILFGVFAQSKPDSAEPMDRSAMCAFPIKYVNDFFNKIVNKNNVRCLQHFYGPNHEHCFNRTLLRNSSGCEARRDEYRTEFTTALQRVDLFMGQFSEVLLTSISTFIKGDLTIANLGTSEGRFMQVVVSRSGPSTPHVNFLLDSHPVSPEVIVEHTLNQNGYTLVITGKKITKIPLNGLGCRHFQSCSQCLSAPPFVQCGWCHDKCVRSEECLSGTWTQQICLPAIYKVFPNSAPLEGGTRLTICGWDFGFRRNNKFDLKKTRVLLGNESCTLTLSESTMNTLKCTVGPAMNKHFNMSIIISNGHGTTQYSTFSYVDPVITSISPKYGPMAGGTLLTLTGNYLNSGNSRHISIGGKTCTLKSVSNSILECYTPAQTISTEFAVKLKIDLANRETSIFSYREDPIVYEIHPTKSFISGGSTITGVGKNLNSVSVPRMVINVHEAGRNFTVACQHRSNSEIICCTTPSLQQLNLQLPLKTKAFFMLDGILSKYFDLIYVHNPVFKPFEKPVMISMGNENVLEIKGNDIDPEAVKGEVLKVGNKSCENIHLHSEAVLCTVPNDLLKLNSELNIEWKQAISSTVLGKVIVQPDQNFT
Description: (§1) These assays were conducted using the peptide-displaying phage discovered from the initial selection and screening campaigns using the first generation peptide libraries. Briefly, 96-well plates were coated overnight at 4 C with 0.5 μg/mL of cMet-Fc fusion protein or TRAIL-Fc fusion protein (background). The plates were blocked for 2 hours at 37 C with 3% BSA in PBST. […] This was followed by an addition of 30 μL of peptide-displaying phage overnight culture to each well. The plates were incubated for 2 hours at room temperature, washed with PBST and cMet-binding peptide-displaying phage was detected using an HRP-conjugated anti-M13 antibody.

[3] = molecular target: T2, cMet-Fc fusion protein (extracellular …); experiment: phage ELISA, cMet-Fc vs TRAIL-Fc
Description: Protein phage ELISAs using peptide-displaying phage isolates from the various selection campaigns were performed to determine specificity of the peptides for cMet versus an unrelated Fc-fusion protein (TRAIL-Fe). Briefly, 384-well plates were coated overnight at 4 C with 0.5 μg/mL of cMet-Fc fusion protein or TRAIL-Fc fusion protein (background). The plates were blocked for 2 hours 37 C with 3% (w/v) BSA in PBS containing 0.05% (v/v) Tween-20 (PBST). The plates were washed with PBST and 100 μL of peptide-displaying phage were added to each well. The plates were incubated for 2 hours at room temperature and washed with PBST. cMet-binding peptide-displaying phage were detected using an HRP-conjugated anti-M13 antibody.

[4] = molecular target: T2, cMet-Fc fusion protein (extracellular …); experiment: phage ELISA on cMet-Fc, competitor HGF 500 ng/mL
Description: as §1

T1 sequence (P08581 25-1390): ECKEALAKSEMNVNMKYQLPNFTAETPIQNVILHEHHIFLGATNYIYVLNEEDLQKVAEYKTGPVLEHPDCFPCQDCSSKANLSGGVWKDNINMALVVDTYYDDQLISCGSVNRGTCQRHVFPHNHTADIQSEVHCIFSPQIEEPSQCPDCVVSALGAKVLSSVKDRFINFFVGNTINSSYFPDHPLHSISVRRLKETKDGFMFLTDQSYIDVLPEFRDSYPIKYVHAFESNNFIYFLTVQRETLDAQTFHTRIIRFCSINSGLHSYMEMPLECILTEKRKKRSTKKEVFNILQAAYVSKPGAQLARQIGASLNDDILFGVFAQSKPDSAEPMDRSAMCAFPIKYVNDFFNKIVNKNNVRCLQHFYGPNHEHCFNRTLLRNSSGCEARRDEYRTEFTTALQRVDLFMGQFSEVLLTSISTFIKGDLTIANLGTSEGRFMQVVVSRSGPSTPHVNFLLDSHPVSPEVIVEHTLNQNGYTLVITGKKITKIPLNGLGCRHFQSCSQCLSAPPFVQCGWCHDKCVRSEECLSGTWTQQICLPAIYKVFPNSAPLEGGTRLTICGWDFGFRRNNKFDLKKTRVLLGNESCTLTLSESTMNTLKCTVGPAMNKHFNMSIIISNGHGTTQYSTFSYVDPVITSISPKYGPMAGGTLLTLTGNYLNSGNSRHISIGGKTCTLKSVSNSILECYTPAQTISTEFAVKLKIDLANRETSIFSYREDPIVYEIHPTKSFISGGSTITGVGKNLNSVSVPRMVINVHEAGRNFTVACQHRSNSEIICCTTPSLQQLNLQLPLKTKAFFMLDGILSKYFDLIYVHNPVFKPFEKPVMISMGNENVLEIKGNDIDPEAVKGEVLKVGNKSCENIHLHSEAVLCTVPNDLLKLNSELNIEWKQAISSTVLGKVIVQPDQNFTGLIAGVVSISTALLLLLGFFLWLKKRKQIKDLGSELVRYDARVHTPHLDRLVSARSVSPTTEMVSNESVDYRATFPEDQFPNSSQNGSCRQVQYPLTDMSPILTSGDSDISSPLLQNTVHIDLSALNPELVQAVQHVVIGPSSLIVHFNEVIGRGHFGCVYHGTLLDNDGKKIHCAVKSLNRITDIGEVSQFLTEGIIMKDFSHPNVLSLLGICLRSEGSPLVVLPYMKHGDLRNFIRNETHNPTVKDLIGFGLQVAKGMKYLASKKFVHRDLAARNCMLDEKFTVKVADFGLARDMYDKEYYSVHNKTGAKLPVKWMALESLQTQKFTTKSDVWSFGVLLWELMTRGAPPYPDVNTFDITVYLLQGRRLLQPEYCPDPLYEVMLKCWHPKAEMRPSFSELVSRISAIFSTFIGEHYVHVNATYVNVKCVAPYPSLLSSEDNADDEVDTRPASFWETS

B1: 569-C03 peptide-displaying phage (SEQ ID NO: 007) (peptide)
peptide: GSFILCWWTFCDTNAP
[1]
  WC ELISA (fold over background): 1.3 fold
[2]
  % of binding in the absence of HGF: 95%
[3]
  Protein ELISA (fold over background): 3.4 fold
[4]
  % of binding in the absence of HGF: 89%

B2: 551-B02 peptide-displaying phage (SEQ ID NO: 069) (peptide)
peptide: AGTWHCAGPPWFTCYMDGT
[1]
  WC ELISA (fold over background): 1.3 fold
[2]
  % of binding in the absence of HGF: 69%
[3]
  Protein ELISA (fold over background): 9 fold
[4]
  % of binding in the absence of HGF: 43%

B3: 545-B12 peptide-displaying phage (SEQ ID NO: 085) (peptide)
peptide: AGSYWCSGPPTFMCRYEGT
[1]
  WC ELISA (fold over background): 1.27 fold
[2]
  % of binding in the absence of HGF: 51%
[3]
  Protein ELISA (fold over background): 17.1 fold
[4]
  % of binding in the absence of HGF: 42%

B4: 547-H12 peptide-displaying phage (SEQ ID NO: 088) (peptide)
peptide: AGSIACTGWPYFSCIDLGT
[1]
  WC ELISA (fold over background): 1.1 fold
[2]
  % of binding in the absence of HGF: 92%
[3]
  Protein ELISA (fold over background): 5.6 fold
[4]
  % of binding in the absence of HGF: 81%

B5: 334-C08 peptide-displaying phage (SEQ ID NO: 067) (peptide)
peptide: AGGWECTGPPWFQCGYYGT
[1]
  WC ELISA (fold over background): 1.47 fold
[2]
  % of binding in the absence of HGF: 70%
[3]
  Protein ELISA (fold over background): 8 fold
[4]
  % of binding in the absence of HGF: 57%

B6: 548-C06 peptide-displaying phage (SEQ ID NO: 084) (peptide)
peptide: AGTMYCLGPPTFICQQYGT
[1]
  WC ELISA (fold over background): 1.23 fold
[2]
  % of binding in the absence of HGF: 94%
[3]
  Protein ELISA (fold over background): 13 fold
[4]
  % of binding in the absence of HGF: 77%

B7: 552-F01 peptide-displaying phage (SEQ ID NO: 087) (peptide)
peptide: AGSSPCKGWPTFECYFYGT
[1]
  WC ELISA (fold over background): 1.3 fold
[2]
  % of binding in the absence of HGF: 56%
[3]
  Protein ELISA (fold over background): 4.8 fold
[4]
  % of binding in the absence of HGF: 37%

B8: 550-G08 peptide-displaying phage (SEQ ID NO: 081) (peptide)
peptide: AGYFHCSGSPWFQCDYYGT
[1]
  WC ELISA (fold over background): 1.4 fold
[2]
  % of binding in the absence of HGF: 79%
[3]
  Protein ELISA (fold over background): 9.1 fold
[4]
  % of binding in the absence of HGF: 58%

B9: 331-G06 peptide-displaying phage (SEQ ID NO: 078) (peptide)
peptide: AGNWICTGPPSFGCWYHGT
[1]
  WC ELISA (fold over background): 1.4 fold
[2]
  % of binding in the absence of HGF: 59%
[3]
  Protein ELISA (fold over background): 4.7 fold
[4]
  % of binding in the absence of HGF: 51%

B10: 331-F01 peptide-displaying phage (SEQ ID NO: 072) (peptide)
peptide: AGEWWCHGPPEFLCYWTGT
[1]
  WC ELISA (fold over background): 1.47 fold
[2]
  % of binding in the absence of HGF: 77%
[3]
  Protein ELISA (fold over background): 12.6 fold
[4]
  % of binding in the absence of HGF: 73%

B11: 331-D03 peptide-displaying phage (SEQ ID NO: 077) (peptide)
peptide: AGYWHCKGPPHFACEFHGT
[1]
  WC ELISA (fold over background): 1.4 fold
[2]
  % of binding in the absence of HGF: 64%
[3]
  Protein ELISA (fold over background): 5.5 fold
[4]
  % of binding in the absence of HGF: 55%

B12: 552-G03 peptide-displaying phage (SEQ ID NO: 079) (peptide)
peptide: AGYWSCAGPPMFMCTWQGT
[1]
  WC ELISA (fold over background): 1.27 fold
[2]
  % of binding in the absence of HGF: 101%
[3]
  Protein ELISA (fold over background): 10.7 fold
[4]
  % of binding in the absence of HGF: 83%

B13: 332-C03 peptide-displaying phage (SEQ ID NO: 076) (peptide)
peptide: AGVNSCLGPPTFECYQMGT
[1]
  WC ELISA (fold over background): 1.2 fold
[2]
  % of binding in the absence of HGF: 37%
[3]
  Protein ELISA (fold over background): 5.7 fold
[4]
  % of binding in the absence of HGF: 95%

B14: 551-G12 peptide-displaying phage (SEQ ID NO: 070) (peptide)
peptide: AGSWECTGPPSFHCQWYGT
[1]
  WC ELISA (fold over background): 1.37 fold
[2]
  % of binding in the absence of HGF: 88%
[3]
  Protein ELISA (fold over background): 3.9 fold
[4]
  % of binding in the absence of HGF: 46%

B15: 335-D11 peptide-displaying phage (SEQ ID NO: 074) (peptide)
peptide: AGSIQCVGPPSFECTPYGT
[1]
  WC ELISA (fold over background): 1.37 fold
[2]
  % of binding in the absence of HGF: 56%
[3]
  Protein ELISA (fold over background): 6.7 fold
[4]
  % of binding in the absence of HGF: 37%

B16: 545-A09 peptide-displaying phage (SEQ ID NO: 066) (peptide)
peptide: AGLPKCSGPPWFSCYYGGT
[1]
  WC ELISA (fold over background): 1.3 fold
[2]
  % of binding in the absence of HGF: 44%
[3]
  Protein ELISA (fold over background): 13.5 fold
[4]
  % of binding in the absence of HGF: 22%

B17: 550-F11 peptide-displaying phage (SEQ ID NO: 089) (peptide)
peptide: AGQFYCSGPPTFQCIMIGT
modifications: not fully specified (bridges); cysteine pairing not given here
[1]
  WC ELISA (fold over background): 1.23 fold
[2]
  % of binding in the absence of HGF: 58%
[3]
  Protein ELISA (fold over background): 12.4 fold
[4]
  % of binding in the absence of HGF: 23%

B18: 552-G11 peptide-displaying phage (SEQ ID NO: 080) (peptide)
peptide: AGYWDCKGPPHFFCEWHGT
[1]
  WC ELISA (fold over background): 1.23 fold
[2]
  % of binding in the absence of HGF: 55%
[3]
  Protein ELISA (fold over background): 7.4 fold
[4]
  % of binding in the absence of HGF: 41%

B19: 567-C08 peptide-displaying phage (SEQ ID NO: 009) (peptide)
peptide: GSLIICWWSWCDKQAP
[1]
  WC ELISA (fold over background): 1.27 fold
[2]
  % of binding in the absence of HGF: 85%
[3]
  Protein ELISA (fold over background): 3.8 fold
[4]
  % of binding in the absence of HGF: 94%

B20: 336-D07 peptide-displaying phage (SEQ ID NO: 075) (peptide)
peptide: AGYSVCKGYPSFECAFFGT
[1]
  WC ELISA (fold over background): 1.33 fold
[2]
  % of binding in the absence of HGF: 44%
[3]
  Protein ELISA (fold over background): 5.8 fold
[4]
  % of binding in the absence of HGF: 37%

B21: 552-A01 peptide-displaying phage (SEQ ID NO: 083) (peptide)
peptide: AGWSDCLGPPQFTCVHWGT
[1]
  WC ELISA (fold over background): 1.33 fold
[2]
  % of binding in the absence of HGF: 76%
[3]
  Protein ELISA (fold over background): 3.9 fold
[4]
  % of binding in the absence of HGF: 81%

B22: 549-F06 peptide-displaying phage (SEQ ID NO: 086) (peptide)
peptide: AGSTDCRGHPTFECWGWGT
[1]
  WC ELISA (fold over background): 1.3 fold
[2]
  % of binding in the absence of HGF: 96%
[3]
  Protein ELISA (fold over background): 5.2 fold
[4]
  % of binding in the absence of HGF: 40%

B23: 574-H03 peptide-displaying phage (SEQ ID NO: 008) (peptide)
peptide: GSSTICPGTACVDHAP
[1]
  WC ELISA (fold over background): 1.27 fold
[2]
  % of binding in the absence of HGF: 88%
[3]
  Protein ELISA (fold over background): 3.2 fold
[4]
  % of binding in the absence of HGF: 18%

B24: 330-G09 peptide-displaying phage (SEQ ID NO: 071) (peptide)
peptide: AGHWICVGPPTFSCQWHGT
[1]
  WC ELISA (fold over background): 1.4 fold
[2]
  % of binding in the absence of HGF: 42%
[3]
  Protein ELISA (fold over background): 13.5 fold
[4]
  % of binding in the absence of HGF: 26%

B25: 333-C05 peptide-displaying phage (SEQ ID NO: 068) (peptide)
peptide: AGDIVCTGHPYFECWSWGT
[1]
  WC ELISA (fold over background): 1.33 fold
[2]
  % of binding in the absence of HGF: 83%
[3]
  Protein ELISA (fold over background): 6.3 fold
[4]
  % of binding in the absence of HGF: 66%
